Assay results from the supplement of paper PMC10567573.

B1: FBF1 (parent)
chain: LQRASILDMRRDHEEQLQRLKLLK
B2: MIA2 (parent)
chain: NSISSDKEATVPCTEILTEKKDTI

Variants of: B1
Assay: protein stability index of a GFP-peptide fusion (GPS, HEK-293T) (PSI 1-6); higher = more stable
Conditions: c terminus: a fixed tail appended
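Further: lentivirally expressed fusions sorted by FACS into six bins by GFP to DsRed ratio, PSI derived from sequencing read proportions per bin multiplied by bin number.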

Point of comparison: H13R, protein stability index 3.19. Against it:
- E15I — lower, 2.37
- E15M — lower, 3.12
- E15Y — lower, 2.84
- E15H — lower, 3.09
- E15V — lower, 3.13
- Q2C — lower, 2.63
- Q2V — lower, 2.88
- Q2W — lower, 2.4
- Q2L — lower, 2.25
- Q2I — lower, 2.49
- Q2Y — lower, 2.77
- L20F — lower, 3.06
- L20T — higher, 4.09
- L20S — higher, 4.11
- L20E — higher, 4.49
- L20Q — higher, 4.33
- L20G — higher, 4.34
- L20K — higher, 4.1
- L20I — higher, 3.3
- L20P — higher, 4.21
- L7E — higher, 4.55
- L7D — higher, 4.03
- L7R — higher, 3.6
- L7V — higher, 3.97
- L7S — higher, 4.27
- L7Y — higher, 3.56
- L7F — lower, 2.85
- L7C — higher, 3.68
- M9N — higher, 3.85
- M9I — higher, 3.81
- M9L — higher, 3.24
- I6N — higher, 4.16
- I6S — higher, 4.15
- I6E — higher, 3.98
- I6M — higher, 3.94
- Q18E — higher, 3.3
- Q18H — lower, 3.02
- Q18I — lower, 2.47
- Q18C — lower, 3.1
- Q18Y — lower, 2.78
- Q18F — lower, 2.19
- Q18D — higher, 3.58
- Q18A — higher, 3.7
- Q18M — lower, 2.86
- Q18S — the same, 3.19
- Q18T — higher, 3.36
- Q18N — higher, 3.6
- Q18V — lower, 3.11
- K21A — higher, 3.59
- K21P — higher, 4.75
- K21I — lower, 2.96
- K21G — higher, 3.49
- K21W — lower, 2.85
- K21D — higher, 3.88
- K21V — lower, 3.07
- Q16Y — lower, 2.75
- Q16C — lower, 3.09
- Q16H — lower, 2.64
- Q16A — lower, 3.18
- Q16V — lower, 3.04
- K24L — lower, 1.87
- K24C — lower, 1.98
- K24D — higher, 4.12
- K24T — lower, 2.87
- K24N — higher, 3.55
- K24R — higher, 3.3
- K24Q — lower, 2.68
- K24W — lower, 2.1
- K24I — lower, 2.28
- K24A — lower, 2.19
- K24F — lower, 2.65
- R3S — higher, 3.9
- R3D — higher, 4.17
- R3C — lower, 3.02
- R3F — lower, 2.8
- R3P — higher, 4.02
- R3H — higher, 3.92
- R3Q — higher, 3.33
- R3M — lower, 3.02
- R3W — lower, 1.9
- R3T — higher, 3.5
- R19A — higher, 3.48
- R19E — higher, 4.25
- R19W — lower, 2.25
- R19C — lower, 2.65
- R19F — lower, 1.69
- R19H — lower, 2.78
- E14C — lower, 2.79
- E14V — lower, 2.69
- E14I — lower, 3.08
- E14D — higher, 3.6
- E14A — higher, 3.32
- E14F — lower, 2.38
- E14N — lower, 2.86
- E14M — lower, 2.56
- E14G — lower, 3.12
- E14L — lower, 3.17
- E14T — lower, 2.96
- A4V — lower, 2.57
- A4P — higher, 4.08
- A4S — lower, 2.67
- A4M — the same, 3.19
- A4N — higher, 3.83
- A4I — lower, 3.13
- A4F — lower, 2.9
- A4L — lower, 3.13
- L22D — higher, 3.63
- L22R — higher, 3.74
- L22P — higher, 4.24
- L22C — higher, 3.94
- L22N — higher, 4.4
- R11M — lower, 3.03
- R11K — higher, 3.7
- R11Q — higher, 3.59
- R11A — higher, 3.23
- R11F — lower, 2.89
- L17Y — higher, 3.55
- L17G — higher, 4.03
- L17M — higher, 3.72
- L17Q — higher, 4.52
- L17P — higher, 4.63
- L17E — higher, 4.07
- L17W — lower, 2.96
- L17T — higher, 4.19
- L17I — higher, 3.91
- L17K — higher, 4.05
- D8H — higher, 3.61
- D8S — higher, 3.6
- D8T — higher, 3.49
- D8A — lower, 3.01
- D8R — lower, 2.71
- D8Y — lower, 2.72
- D8C — higher, 3.2
- D8I — lower, 2.51
- R10T — higher, 3.79
- R10Q — higher, 3.51
- R10H — higher, 3.45
- R10M — lower, 2.9
- R10C — lower, 2.8
- R10L — lower, 2.5
- R10D — higher, 3.44
- L1T — higher, 3.94
- L1K — higher, 3.64
- L1H — higher, 3.33
- L1A — higher, 3.81
- L1V — higher, 3.51
- L1C — lower, 3.11
- L1W — higher, 3.22
- L1P — higher, 3.87
- D12H — higher, 3.3
- D12L — lower, 2.8
- D12G — higher, 3.21
- D12T — higher, 3.69
- D12V — lower, 2.94
- D12A — higher, 3.41
- D12M — lower, 2.81
- D12Q — higher, 3.71
- D12N — higher, 3.78
- D12Y — higher, 3.37
- S5L — lower, 2.49
- S5A — higher, 3.59
- S5F — lower, 2.3
- S5R — lower, 2.83
- S5P — higher, 3.48
- S5E — lower, 3.15
- S5V — lower, 2.92
- S5W — lower, 2.34
- L23A — higher, 4.14
- L23F — higher, 3.88
- L23M — higher, 4.21
- L23V — higher, 3.69
- L23T — higher, 4.03
- L23P — higher, 3.89
- L23K — higher, 4.22
- L23I — higher, 3.88
- L23Q — higher, 4.15
- L23R — higher, 3.94
- L23E — higher, 4.8
- H13N — higher, 3.95
- H13Y — lower, 2.83
- H13S — higher, 3.84
- H13A — higher, 3.89
- H13T — higher, 3.27
- H13K — lower, 2.68

Variants of: B2
Assay: as above
Conditions: c terminus: a fixed tail appended

Point of comparison: S4V, protein stability index 5.32. Against it:
- K7G — higher, 5.8
- K7Y — lower, 5.17
- K7F — lower, 4.95
- K7T — higher, 5.49
- K7P — higher, 5.62
- K7S — higher, 5.5
- K7R — lower, 5.07
- E15M — lower, 4.68
- E15N — lower, 5.23
- E15H — lower, 5.04
- E15P — lower, 5.16
- E15W — lower, 4.13
- E15F — lower, 4.46
- E15T — higher, 5.46
- E15Q — the same, 5.32
- K20W — lower, 4.54
- K20Y — lower, 4.75
- K20N — higher, 5.53
- K20S — higher, 5.54
- K20M — higher, 5.35
- K20P — lower, 5.3
- K20E — higher, 5.53
- K20F — lower, 4.64
- D22N — lower, 5.21
- D22Y — lower, 4.53
- D22P — higher, 5.43
- D22I — lower, 4.55
- D22C — lower, 4.97
- D22L — lower, 4.57
- S5F — lower, 4.94
- S5Y — lower, 5.23
- S5P — higher, 5.59
- T10K — lower, 5.24
- T10E — higher, 5.82
- T10P — the same, 5.32
- T10F — lower, 5.27
- T10W — lower, 5.07
- T14V — higher, 5.42
- T14W — lower, 4.74
- T14P — higher, 5.45
- T14N — higher, 5.42
- T14C — higher, 5.39
- T14H — higher, 5.45
- T18A — lower, 4.93
- T18G — higher, 5.43
- T18V — lower, 5.12
- T18Q — higher, 5.4
- T18M — lower, 4.89
- T18C — lower, 5.05
- T18L — lower, 5.11
- T18E — higher, 5.63
- A9W — lower, 4.79
- A9H — the same, 5.32
- A9I — lower, 5.3
- A9D — lower, 5.11
- A9P — higher, 5.38
- A9Y — lower, 5.05
- K21G — lower, 5.16
- S2C — lower, 5.27
- S2M — higher, 5.54
- S2K — lower, 5.19
- S2G — higher, 5.37
- S2N — higher, 5.66
- S2H — lower, 5.09
- S2D — higher, 5.59
- S4L — lower, 5.21
- S4G — lower, 4.98
- S4T — lower, 5.25
- S4W — lower, 5.11
- S4Q — higher, 5.63
- S4A — higher, 5.41
- S4C — higher, 5.67
- I3V — higher, 5.45
- I3S — higher, 5.42
- I3Y — higher, 5.58
- I3M — higher, 5.45
- P12M — lower, 5.21
- P12H — lower, 5
- P12K — higher, 5.47
- P12S — higher, 5.63
- P12T — higher, 5.48
- P12C — lower, 5.28
- P12W — lower, 4.58
- P12A — higher, 5.49
- V11D — higher, 5.72
- V11L — higher, 5.41
- V11Y — lower, 4.89
- V11Q — higher, 5.53
- V11F — higher, 5.43
- I24H — higher, 5.45
- I24S — higher, 5.69
- I24G — higher, 5.56
- I24K — higher, 5.35
- I24V — higher, 5.63
- E8A — lower, 5.07
- E8R — higher, 5.74
- E8F — lower, 4.93
- E8M — lower, 5.14
- E8L — lower, 5.31
- E8I — the same, 5.32
- E8S — higher, 5.46
- E8T — lower, 5.17
- E8G — higher, 5.37
- T23V — the same, 5.32
- T23F — lower, 4.83
- T23E — higher, 5.61
- T23N — lower, 5.24
- T23A — higher, 5.55
- T23S — higher, 5.47
- T23R — lower, 5.13
- T23I — lower, 5.09
- C13K — higher, 5.4
- C13Y — lower, 5.01
- C13L — lower, 5.25
- C13R — lower, 4.99
- C13W — lower, 5.06
- C13E — higher, 5.57
- C13I — higher, 5.54
- C13A — lower, 5.27
- C13H — lower, 5.15
- I16D — higher, 5.81
- I16Y — lower, 5.12
- I16M — higher, 5.49
- I16Q — higher, 5.65
- I16T — higher, 5.63
- I16V — higher, 5.45
- I16W — lower, 5.26
- I16L — higher, 5.51
- D6P — higher, 5.35
- D6K — lower, 5.2
- D6V — lower, 5.14
- E19M — lower, 5.08
- E19T — lower, 5.17
- E19I — lower, 4.72
- E19C — lower, 5.21
- E19A — higher, 5.34
- E19S — lower, 5.3
- N1A — higher, 5.42
- N1S — higher, 5.62
- N1D — lower, 5.25
- N1C — lower, 5.27
- N1Y — lower, 4.81
- L17P — higher, 5.62
- L17S — higher, 5.57
- L17A — higher, 5.8
- L17H — lower, 5.21
- L17C — higher, 5.51
- L17F — lower, 5.29
